T1: proTGFβ3 (Homo sapiens (Human), UniProt P10600 24-412)
T1 sequence: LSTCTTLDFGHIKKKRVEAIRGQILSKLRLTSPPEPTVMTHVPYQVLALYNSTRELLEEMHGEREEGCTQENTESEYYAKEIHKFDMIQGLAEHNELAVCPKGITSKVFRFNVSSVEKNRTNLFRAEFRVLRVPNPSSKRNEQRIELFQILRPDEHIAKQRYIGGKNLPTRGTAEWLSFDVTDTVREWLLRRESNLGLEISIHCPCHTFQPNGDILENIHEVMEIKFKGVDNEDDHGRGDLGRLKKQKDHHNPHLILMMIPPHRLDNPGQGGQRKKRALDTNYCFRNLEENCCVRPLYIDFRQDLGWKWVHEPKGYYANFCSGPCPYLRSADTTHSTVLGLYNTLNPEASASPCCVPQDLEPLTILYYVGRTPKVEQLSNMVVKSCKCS

T2: proTGFβ2 (Chlorocebus aethiops (Green monkey) …, UniProt P61811 20-414)
T2 sequence: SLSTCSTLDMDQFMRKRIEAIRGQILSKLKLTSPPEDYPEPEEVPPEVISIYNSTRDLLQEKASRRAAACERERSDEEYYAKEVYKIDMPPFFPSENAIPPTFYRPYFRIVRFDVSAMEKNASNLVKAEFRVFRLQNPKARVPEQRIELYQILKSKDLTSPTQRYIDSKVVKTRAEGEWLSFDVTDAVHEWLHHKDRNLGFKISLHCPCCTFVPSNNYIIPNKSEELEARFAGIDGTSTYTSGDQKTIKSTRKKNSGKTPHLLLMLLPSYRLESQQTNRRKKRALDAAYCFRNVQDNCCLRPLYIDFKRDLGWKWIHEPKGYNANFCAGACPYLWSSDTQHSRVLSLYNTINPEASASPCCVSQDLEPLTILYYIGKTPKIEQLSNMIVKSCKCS


Tests used:
proTGFβ3 = molecular target: T1, proTGFβ3; experiment: ELISA
proTGFβ2 = molecular target: T2, proTGFβ2; experiment: ELISA
[1] = molecular target: rat LTBP1-proTGFβ1 complex (rat, UniProt Q00918 339-1712; P17246 30-390); experiment: Octet (BLI) binding assay as in Table 6
Protocol: a. Dilute both antibodies to 50 μg/mL in 300 μl of 1x buffer in row A. b. Add 200 μl of buffer to the rest of each column c. Transfer 100 μl down the column to make 3-fold dilutions

Chain of rat LTBP1-proTGFβ1 complex (Q00918 339-1712, chain 1 of 2): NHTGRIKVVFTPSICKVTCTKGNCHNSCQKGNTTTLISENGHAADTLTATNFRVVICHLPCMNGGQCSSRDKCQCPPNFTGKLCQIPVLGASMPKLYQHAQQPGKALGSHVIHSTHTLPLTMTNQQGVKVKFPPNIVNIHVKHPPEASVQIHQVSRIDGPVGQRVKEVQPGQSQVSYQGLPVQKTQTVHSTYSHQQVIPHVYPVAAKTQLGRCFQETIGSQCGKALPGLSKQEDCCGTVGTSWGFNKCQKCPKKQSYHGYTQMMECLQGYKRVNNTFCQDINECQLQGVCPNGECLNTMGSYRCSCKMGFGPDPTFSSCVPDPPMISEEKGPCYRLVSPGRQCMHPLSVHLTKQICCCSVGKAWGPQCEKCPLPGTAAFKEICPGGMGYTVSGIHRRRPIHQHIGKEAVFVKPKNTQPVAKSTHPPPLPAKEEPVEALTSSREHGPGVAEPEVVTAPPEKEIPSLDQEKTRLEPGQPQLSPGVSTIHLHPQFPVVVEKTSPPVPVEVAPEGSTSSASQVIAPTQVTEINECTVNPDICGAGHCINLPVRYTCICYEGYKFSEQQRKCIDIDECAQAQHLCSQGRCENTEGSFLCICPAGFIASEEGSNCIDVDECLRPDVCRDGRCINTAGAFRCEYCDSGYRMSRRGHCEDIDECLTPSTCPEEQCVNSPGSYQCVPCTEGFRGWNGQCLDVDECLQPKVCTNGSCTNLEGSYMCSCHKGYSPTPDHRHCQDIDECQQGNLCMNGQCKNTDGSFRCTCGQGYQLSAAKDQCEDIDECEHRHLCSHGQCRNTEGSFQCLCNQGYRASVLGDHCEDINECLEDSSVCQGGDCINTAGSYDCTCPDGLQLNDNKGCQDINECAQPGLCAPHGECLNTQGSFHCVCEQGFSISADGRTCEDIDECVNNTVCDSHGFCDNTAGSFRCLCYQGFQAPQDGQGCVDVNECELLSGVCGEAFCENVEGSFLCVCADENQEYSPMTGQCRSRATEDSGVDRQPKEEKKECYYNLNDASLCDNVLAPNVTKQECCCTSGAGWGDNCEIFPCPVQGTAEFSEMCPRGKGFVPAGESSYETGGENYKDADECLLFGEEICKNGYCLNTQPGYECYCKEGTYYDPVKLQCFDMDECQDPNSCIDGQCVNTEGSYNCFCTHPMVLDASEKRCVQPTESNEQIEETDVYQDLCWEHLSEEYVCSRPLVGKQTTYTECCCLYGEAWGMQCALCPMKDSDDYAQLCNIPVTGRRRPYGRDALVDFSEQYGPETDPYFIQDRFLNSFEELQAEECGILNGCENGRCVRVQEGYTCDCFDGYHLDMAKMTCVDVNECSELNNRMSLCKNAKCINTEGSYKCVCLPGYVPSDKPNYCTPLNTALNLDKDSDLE
Chain of rat LTBP1-proTGFβ1 complex (P17246 30-390, chain 2 of 2): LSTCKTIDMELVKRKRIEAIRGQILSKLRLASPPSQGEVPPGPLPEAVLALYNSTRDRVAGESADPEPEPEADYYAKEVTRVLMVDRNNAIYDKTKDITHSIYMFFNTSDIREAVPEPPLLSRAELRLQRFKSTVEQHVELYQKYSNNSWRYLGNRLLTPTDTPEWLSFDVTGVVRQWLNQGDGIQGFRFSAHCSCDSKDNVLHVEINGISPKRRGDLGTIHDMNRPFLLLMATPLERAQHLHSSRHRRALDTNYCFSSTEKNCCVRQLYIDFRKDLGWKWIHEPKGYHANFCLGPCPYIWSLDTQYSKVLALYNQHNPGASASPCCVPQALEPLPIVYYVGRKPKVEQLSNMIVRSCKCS

binding result (proTGFβ3) | binding result (proTGFβ2) | binding result [1] | Binder
no binding | no binding | – | Ab2 (antibody, V domains shown, also called antibody Ab2; clone Ab2) VH: EVQLVQSGAEMKKPGESLKISCKGSGYNFASDWIGWVRQTPGKGLEWMGVIYPGDSDTRYSASFQGQVTISADKSINTAYLQWSSLKASDTAMYYCASAAGIAAAGHVTAFDIWGQGTMVTVSS VL: not shown
no binding | no binding | no binding | Ab1 (antibody, human IgG4 S228P, lambda, V domains shown, also called antibody Ab1; clone Ab1) VH: EVQLVESGGGLVQPGRSLRLSCAASGFTFSSYGMHWVRQAPGKGLEWVAVISYDGSNKYYADSVKGRFTISRDNSKNTLYLQMNSLRAEDTAVYYCARDIRPYGDYSAAFDIWGQGTLVTVSS VL: NFMLTQPHSVSESPGKTVTISCTGSSGSIASNYVQWYQQRPGSAPSIVIFEDNQRPSGAPDRFSGSIDSSSNSASLTISGLKTEDEADYYCQSYDSSNHGGVFGGGTQLTVLG
